Reference: article PMC6107761, “Preferential Binding of Mg^2+ Over Ca^2+ to CIB2 Triggers an Allosteric Switch Impaired in Usher Syndrome Type 1J” (Frontiers in Molecular Neuroscience, 2018)
Where a chain is given by its changes, count along the chain named. Names may count otherwise.

B1: human wild type calcium and integrin binding protein 2 (CIB2) (natural protein, UniProt O75838-1 1-187, looked up)
chain: MGNKQTIFTEEQLDNYQDCTFFNKKDILKLHSRFYELAPNLVPMDYRKSPIVHVPMSLIIQMPELRENPFKERIVAAFSEDGEGNLTFNDFVDMFSVLCESAPRELKANYAFKIYDFNTDNFICKEDLELTLARLTKSELDEEEVVLVCDKVIEEADLDGDGKLGFADFEDMIAKAPDFLSTFHIRI
notes: 21.6 kDa; complete cDNA; Non-covalent dimer by SEC, Ferguson plots and DLS under reducing conditions; Tag removed by TEV protease; also called WT CIB2; WT; source: E. coli BL21 DE3, purified (His-trap, TEV cleavage, second His-trap flow-through); not shown: 6xHis, N-terminal, cleaved
B2: peptide of the membrane proximal segment of the cytoplasmic domain of α7B integrin, residues 1101-1116 (peptide)
peptide: Ac-LLLWKMGFFKRAKHPE-NH2
notes: Integrin α7B, membrane proximal segment of the cytoplasmic domain, residues 1101-1116 of Uniprot entry Q13683; source: synthetic peptide (GenScript)
B3: human E64D CIB2 (natural protein, UniProt O75838-1 1-187, looked up)
chain: B1 chain with E64D
notes: point mutation E64D made by site-directed mutagenesis on the complete cDNA; variant associated with Usher syndrome type 1J / non-syndromic hearing loss; After elution treated as the WT protein (TEV cleavage of the His tag); Dimer by SEC and Ferguson plots; also called p.E64D; USH1J-related variant; not shown: 6xHis, N-terminal, cleaved

Columns and labels:
[1] = molecular target: B2; assay: other fluorescence titration; Trp emission spectra of 4 μM peptide alone and with fixed concentrations of WT CIB2 (8 μM for α7B_M; 2, 4 and 8 μM for Scrb); 20 mM Hepes, 150 mM KCl, 1 mM DTT pH 7.5, 37°C, 1 mM Mg2+ and 1 mM Ca2+; details: both partners purified
[2] = molecular target: B2; assay: other fluorescence titration; 4 μM α7B_M peptide titrated with increasing CIB2; blue shift of the peptide's Trp emission peak (excitation 295 nm); 20 mM Hepes, 150 mM KCl, 1 mM DTT pH 7.5, 37°C, 1 mM Mg2+ and 1 mM Ca2+; apparent Kd; details: both partners purified
[3] = molecular target: B1; assay: as above; details: both partners purified
[4] = molecular target: B3; assay: as above; details: both partners purified
[5] = molecular target: the molecule itself; assay: SEC; analytical SEC, Superose 12 10/300GL; 20 mM Tris pH 7.5, 150 mM KCl, 1 mM DTT with 3 mM EGTA or 2 mM EGTA + 3 mM Mg2+ or 3 mM Mg2+ + 2 mM Ca2+; WT 100 μM, E64D 70 μM; MW from a calibration plot

| Binder | fold increase in the maximal fluorescence emission of the peptide [1] | stoichiometry N [2] | Kd [3] | Kd [4] | stoichiometry N [5] |
| --- | --- | --- | --- | --- | --- |
| B1 | 1.7 fold | 2 CIB2 chains per peptide | – | – | – |
| B2 | – | – | 4.99 µM | 3.1 µM | – |
| B3 | – | 2 CIB2 chains per peptide | – | – | 2 |
